Experimental data as given in patent US8715959B2, “Substitution mutant receptors and their use in a nuclear receptor-based inducible gene expression system” (priority 2001, dated 2014).

Key:
CfEcR-DEF = test: GAL4/mutant CfEcR-DEF + VP16/LmUSP-EF GAL4-driven luciferase reporter transactivation in NIH3T3 cells; type: cell-based, Choristoneura fumiferana
CfEcR-A/BCDEF = test: GAL4/full length CfEcR-A/BCDEF or A110P mutant, EcRE-driven luciferase reporter in NIH3T3 cells (FIG. 2); type: cell-based, Choristoneura fumiferana; conditions: 40 hours
Source text: To eliminate the possibility that the loss of steroid activity may be due to the truncated CfEcR-DEF receptor or an artifact of the GAL4 fusion protein, Applicants introduced the A110P mutation into the full length (FL) CfEcR (CfEcR-A/BCDEF), fused it to the GAL4 DNA binding domain as described in Example 1.4, and comparatively assayed it in NIH3T3 cells in 24-well plates as described in Example 2 above with full length wild type CfEcR (Example 1.3) in combination with VP16/LmUSP-EF and pFREcRE Luc that comprised the luciferase reporter gene operatively linked to six copies of the ecdysone response element (6×EcRE) and a synthetic TATAA. The transfected cells were grown in the presence of 0.25 or 10 μM PonA or GS™-E and the reporter activity was measured at 40 hours after adding ligand. The cells were harvested and the extracts were assayed for luciferase activity. The numbers on top of the bars indicate fold increase over DMSO levels.

CfEcR = test: In vitro 3H-PonA ligand binding of CfEcR wild-type and A110 mutants (FIG. 5); design: species or system Choristoneura fumiferana; conditions: in vitro translated receptor with GST-CfUSP-A/BCDEF
CfEcR-CDEF = conditions: L57 cells, 40 hours, FIG. 3
Source text: To determine whether the A110P mutant can respond to 20E, Applicants tested this A110P mutant-based gene expression system in an EcRE-driven reporter assay in insect L57 cells (a Drosophila melanogaster cell line that lacks EcR isoform B, the Drosophila melanogaster EcR isoform homolog of CfEcR isoform B from which the A110P mutant is derived, however L57 cells still contain EcR isoform A). The mutation was introduced into the VP16/CfEcR-CDEF fusion protein and operably linked to an baculovirus IE1 promoter and L57 cells were transfected with IE1VP16CfEcRCDEF (Example 1.5) or its A110P mutant version DNA (Example 1.6) along with a pMK43.2 β-galactosidase reporter gene under the control of 6× ecdysone response elements (“6×EcRE”; the pMK43.2 construct was obtained from Michael Koelle at Stanford University) in 24-well plates. Reporter activity for A110P mutant-based gene expression system transactivation was measured after 40 hours of treatment of the transfected cells with 0, 1, 10, 100, or 1000 nM 20E or GS™-E. The cells were harvested and the extracts were assayed for β-galactosidase (β-gal) and luciferase activity. β-Galactosidase was measured using Galacto-Star™ assay kit from TROPIX following the manufacturer's instructions.

B1: A110P: CfEcR LBD substitution mutant, Alanine (A) to Proline (P); also made in CfEcR-A/BCDEF and CfEcR-CDEF (protein, listed as Choristoneura fumiferana)
chain: LTANQQFLIARLIWYQDGYEQPSDEDLKRITQTWQQADDENEESDTPFRQITEMTILTVQLIVEFAKGLPGFAKISQPDQITLLKACSSEVMMLRVARRYDAASDSVLFPNNQAYTRDNYRKAGMAYVIEDLLHFCRCMYSMALDNIHYALLTAVVIFSDRPGLEQPQLVEEIQRYYLNTLRIYILNQLSGSARSSVIYGKILSILSELRTLGMQNSNMCISLKLKNRKLPPFLEEIWDV
For B1, the “Fold increase over WT, 2.5 μM GS™-E” value (CfEcR-DEF; 2.5 μM GS™-E non-steroidal ligand, NIH3T3 cells, relative to Gal4/wild-type CfEcR-DEF switch activity) was 0.8 fold, the “Fold increase over WT, 2.5 μM PonA” value (CfEcR-DEF; 2.5 μM PonA steroidal ligand, NIH3T3 cells, relative to Gal4/wild-type CfEcR-DEF switch activity) was 0.005 fold and the “non-steroid activity (summary of Table 10)” value (CfEcR-DEF; GS™-E, CfEcR-DEF point mutants) was “not significantly affected”. For the same molecule, the “steroid binding activity (summary of Table 10)” value (CfEcR-DEF; PonA, CfEcR-DEF point mutants) was “essentially eliminated”, the “non-steroid activity of full length receptor versus full length WT CfEcR” value (CfEcR-A/BCDEF; 0.25 or 10 μM GS™-E) was “no significant difference” and the “PonA activity of full length receptor” value (CfEcR-A/BCDEF; 0.25 or 10 μM PonA) was “completely lost”. For the same molecule, the “PonA binding, of wild-type receptor binding” value (CfEcR) was “undetectable”, the “reporter gene activity in the presence of 20E” value (CfEcR-CDEF; 1-1000 nM 20E) was “slightly increased reporter gene activity” and the “reporter gene expression in the presence of GS™-E” value (CfEcR-CDEF; 1-1000 nM GS™-E) was “transactivated reporter gene expression”.
